The record followed here is patent publication US20080311122A1 (AstraZeneca / MedImmune, published 2008).

The term Kd denotes the free concentration of one partner at which half of the binding sites on the other are occupied at equilibrium, for simple one-to-one binding. As a reminder, the IC50 is the concentration that inhibits the measured activity by half.

In assay [1] the target is T1, recombinant HMG1 purified from E. coli as a calmodulin binding protein (CBP) fusion protein (human, UniProt A9RA84 1-215 (Papio anubis entry)).
T1 sequence: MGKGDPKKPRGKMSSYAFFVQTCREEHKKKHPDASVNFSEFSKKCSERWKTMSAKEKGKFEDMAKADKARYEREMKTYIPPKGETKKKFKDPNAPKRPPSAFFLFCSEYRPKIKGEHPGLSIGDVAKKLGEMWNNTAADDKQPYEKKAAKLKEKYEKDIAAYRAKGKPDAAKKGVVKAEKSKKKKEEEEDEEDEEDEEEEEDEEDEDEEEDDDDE
The assay is described as follows: cell-based or functional assay.

Assay [2] concerns the target T1, recombinant HMG1 purified from E. coli …. The assay is described as follows: ELISA, rHMG1 preincubated with antibody, coated RAGE-Fc. As to the method:
HMG1 binding to RAGE-Ig by ELISA: 50 μl/well of RAGE-Fc fusion protein at 5 μg/ml in PBS was added to each well of an ELISA plate and incubated overnight at 4° C. The plate was then blocked with 200 μl of 5% milk at 37° C. for 1 hr and washed 3× with PBS/Tween. 50 μl/well of diluted HMGB1 solution. For dose curves, HMGB1 concentrations started at 4 ug/ml in PBS. For antibody blocking the HMGB1 was preincubated in another plate with human anti-HMG1 antibodies or buffer, then transferred to the RAGE-coated plate. The plates were then incubated at room temperature for 2 hours and washed 3×. To detect any HMG1 bound to the immobilized RAGE-Fc a mixture of biotinylated mouse anti-HMG1 mAbs (10D4, 4H11, 3E10 and 5C12) each at 1 ug/ml, total Ab: 4 ug/ml, were added to each well and the plate was incubated for 1 hour at room temperature. The plate was then washed and Strepavidin-HPR was added to each well and incubated 15 min. The plate was then washed 3× and blotted dry. 100 μl of TMB developing agent was added and the plate read at 650 nm. Values were calculated as percent of inhibition with HMG1 alone equal to 0% inhibition. The data in FIG. 9 and summarized in Table 1 represent the average of two separate experiments.

For assay [3] the target is unchanged. The assay is described as follows: BIAcore, mAb immobilized, HMG1 injected, steady-state model. As to the method:
HMG1 Binding Affinity via BIAcore Analysis: All experiments were performed on a BIAcore 3000 instrument (BIAcore, Inc., Piscataway, N.J.). Briefly, each mAb was immobilized to a CM5 sensor chip using a standard amino coupling chemistry. Separately a reference (control) flow cell was also prepared. Two-fold, serial dilutions of HMG1 in instrument buffer were sequentially injected at a slow flow rate over the individual mAb and reference flow-cell surfaces. Following the binding and dissociation of HMG1, the mAbs surfaces were regenerated with a brief pulse of 1M NaCl-50 mM NaOH. At the end of each experiment, the binding curves were evaluated using a steady-state model available through the BIA evaluation software supplied by BIAcore, Inc. (Piscataway, N.J.).
(In SPR one partner is held on a chip, and binding of the other changes the refractive index at the surface.)

The target in assay [4] is T2, HMG2 (UniProt P40673 2-209, limits assumed).
T2 construct: also called HMGB2; HMBG2
T2 sequence (looked up): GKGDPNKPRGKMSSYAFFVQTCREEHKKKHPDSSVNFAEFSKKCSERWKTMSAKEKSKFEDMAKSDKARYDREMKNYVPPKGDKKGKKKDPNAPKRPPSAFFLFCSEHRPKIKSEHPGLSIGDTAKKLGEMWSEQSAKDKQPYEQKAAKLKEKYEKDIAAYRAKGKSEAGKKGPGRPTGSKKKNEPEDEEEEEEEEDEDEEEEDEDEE
The assay is described as follows: ELISA, wells coated with HMGB2 at 5 ug/mL, OD 490. As to the method:
(§1) Binding to HMG1 vs. HMG2: Ultra high-binding ELISA plates (ThermoLab systems, #3855) were coated with either 5 ug/mL of Calf thymus HMGB1 or HMBG2 diluted in 10 mM Phosphate buffered saline (PBS), pH 7.2 and incubate overnight at 4 degrees. The plates were washed twice with Ca and Mg free PBS and 100 microliters of anti-HMGB1 antibody diluted in 10 mM PBS, pH 7.2+1% bovine serum albumin (BSA) to a final concentration of 10 ug/mL was added to each well and the plates were incubated 1 hour at room temperature. The wells were washed three times with 100 μl of PBS, pH 7.2. HRP labeled goat-anti-human IgG Kappa-chain (KPL, #14-10-10) and goat-anti-human IgG Lambda-chain (KPL, #14-10-11) were diluted in 10 mM PBS+1% BSA 1:1000 and 100 μl were added to each well and incubated for 1 hour at room temperature. The wells were then washed three times with 100 μl of PBS, pH 7.2. OPD substrate (Pierce chemical company, #34006) was prepared following the manufacturers instructions and 100 μl of prepared substrate was added to each well and the plates incubated at room temperature in the dark for 20-30 minutes. The reaction was stopped with the addition of 100 μl of 2M H₂SO₄, and the plates read on a plate reader at a wavelength of 490 nm.
A general note: In an ELISA, binding on a coated surface is turned into a signal by an enzyme label.

Assay [5] addresses T3, HMG1 B Box peptide amino acids 91-169.
T3 construct: also called HMG1 peptide 91-169
T3 peptide: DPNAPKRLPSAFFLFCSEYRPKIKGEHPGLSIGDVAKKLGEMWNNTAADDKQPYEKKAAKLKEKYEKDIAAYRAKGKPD
Description: ELISA, wells coated with HMG1 B Box peptide 91-169 at 10 ug/ml. As to the method: (§2) The plate was then blocked with 4% milk powder dissolved in PBS at 37° C. for 1 hour. The blocking solution was removed and replaced with human anti-HMG1 antibodies at various concentrations (see FIGS. 5A-B). […] HRP activity was detected with Sureblue HRP substrate (KPL). Plates were read at 450 nm using a Kinetic Microplate Reader (Molecular Devices). […] After washing and blocking with 1% BSA in PBS, the biotinylated peptides were individually added into the avidin coated wells and incubated for 30 min at room temperature. The serial diluted antibody G4, S16 and S6 at the initial concentration at 10 μg/ml were then transferred into the wells followed by adding mouse anti human IgG-HRP conjugate (Pierce). Detection was accomplished by adding 50 μl of tetramethylbenzidine (TMB) substrate (KPL) and the absorbance was read at […].

Assay [6] concerns the target T4, HMG1 B Box peptide amino acids 150-183.
T4 peptide: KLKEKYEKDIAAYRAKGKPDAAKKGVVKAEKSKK
Description: ELISA, wells coated with HMG1 B Box peptide 150-183 at 10 ug/ml. The method, then: as §2

The target in assay [7] is T5, HMG1 purified from bovine (calf) thymus (bovine, UniProt P10103 2-215).
T5 construct: also called Calf thymus HMGB1; thymus HMG1
T5 sequence (looked up): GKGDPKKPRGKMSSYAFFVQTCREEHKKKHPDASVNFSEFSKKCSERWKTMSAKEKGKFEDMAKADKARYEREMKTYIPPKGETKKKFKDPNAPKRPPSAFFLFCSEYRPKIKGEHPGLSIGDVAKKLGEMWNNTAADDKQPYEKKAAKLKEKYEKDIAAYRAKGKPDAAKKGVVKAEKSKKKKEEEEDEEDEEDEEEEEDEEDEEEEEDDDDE
Description: ELISA, wells coated with calf thymus HMGB1 at 5 ug/mL, antibody at 10 ug/mL, anti-human kappa/lambda-HRP, OD 490. The method, then:
as §1

Assay [8] deals with T6, activated HMG1 prepared from LPS stimulated THP-1 cells (human, UniProt P09429 1-215).
T6 sequence (looked up): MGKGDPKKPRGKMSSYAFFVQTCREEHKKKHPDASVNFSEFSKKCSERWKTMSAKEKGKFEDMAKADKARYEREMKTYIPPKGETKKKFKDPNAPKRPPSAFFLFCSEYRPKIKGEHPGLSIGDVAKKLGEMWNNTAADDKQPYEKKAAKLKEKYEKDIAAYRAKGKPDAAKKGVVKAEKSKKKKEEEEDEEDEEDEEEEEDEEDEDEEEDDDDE
The assay is described as follows: cell-based or functional assay.

For assay [9], the target named is T7, recombinant rat HMGB-1, Europium-labeled (rat, UniProt P63159 1-215, limits assumed, Europium label, molar ratio of HMGB-1 to Eu 1:5).
T7 construct: also called Europium-labeled HMGB-1; recombinant HMG1 (Thp-1 assay)
T7 sequence (looked up): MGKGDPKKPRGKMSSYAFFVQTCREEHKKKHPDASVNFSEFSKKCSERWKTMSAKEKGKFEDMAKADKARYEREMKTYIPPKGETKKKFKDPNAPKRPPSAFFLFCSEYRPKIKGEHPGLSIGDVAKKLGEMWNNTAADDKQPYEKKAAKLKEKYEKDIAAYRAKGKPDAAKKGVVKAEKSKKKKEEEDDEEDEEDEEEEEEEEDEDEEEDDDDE
Description: inhibition of binding of Eu-labeled HMGB-1 to THP-1 cells. The method, then:
HMG1 binding to THP-1 Cells: Recombinant rat HMGB-1 was labeled using Eu-labelling Kit from PerkinElmer. Molar ratio of HMGB-1 to Eu is 1:5. THP-1 were cultured as the protocol from ATCC. Cells were harvested and suspended at concentration 1×10⁶/ml in assay buffer containing 1×DELFIA L*R binding buffer (PerkinElmer), 50% of DELFIA stabilizer (PerkinElmer) and 0.05% of sodium azide. 100 μl of cells (1×10⁵) was added into wells in 96 well cell culture plate. The plate was incubated with gentle shaking at 4° C. for one hour. 100 μl of assay buffer containing 2 nM of Europium-labeled HMGB-1 mixed with various concentrations (333, 166.5, 83.25, 41.6, 20.8, 10.4 and 5.2 nM) of human anti-HMGB1 antibodies E11 or G2 or soluble human RAGE-Fc, were added into each wells respectively. After one hour incubation with gentle shaking at 4° C., the cells were washed four times with 1×L*R wash buffer (PerkinElmer) by centrifuging at 1200 rpm×5 min. 200 μl of enhancement solution was added into each well to dissociate and enhance Eu fluorescence at 615 nm. The fluorescence was measured with Wallac Victor Fluorometer. Assay was performed in triplicate and human antibody R3-47 was used the negative isotype control.

B1: anti-HMG1 antibody S10 (antibody, V domains shown)
VH: EVQLLESGGGLVQPGGSLRLSCAASGFTFSWYDMWWVRQAPGKGLEWVSWIVPSGGITAYADSVKGRFTISRDNSKNTLYLQMNSLRAEDTATYYCARGNYGPSPFDYWGQGTLVTVSS
VL: DIQMTQSPGTLSLSPGERATLSCRATQSVRKNFLAWYQQKPGQAPRLLIYDASSRATGIPDRFSGSGSGTDFTLTISRLEPEDFAVYYCQQYGNSPIIFGQGTRLEIK
Consider B1, for which the “IC50, inhibition of rHMG1 stimulated IL-1β release from human PBMC” value in [1] is 2590 ng/mL. In [1], the “IC50, inhibition of rHMG1 stimulated IL-6 release from human PBMC” value came to 0.324 nM. For the same molecule, the “IC50, inhibition of rHMG1 stimulated IL-12 release from human PBMC” value in assay [1] came out at 1130 ng/mL. Also, the “IC50, inhibition of rHMG1 stimulated TNF-α release from human PBMC” value in [1] was determined as 875 ng/mL. Moreover, the “percent inhibition of HMG1 binding to RAGE-Fc” value in [2] is ≥ 35%. In assay [3], the dissociation constant Kd came to 54 nM. In addition, the binding result is given as “no binding (tested: 10 ug/mL (not on the sheet))” in assay [4], “no binding (tested: 10 ug/ml (log 1.00))” in assay [5], “no binding (tested: 10 ug/ml (log 1.00))” in [6] and “binds” in assay [7].

B2: anti-HMG1 antibody S17 (antibody, V domains shown)
VH: EVQLLESGGGLVQPGGSLRLSCAASGFTFSYYDMHWVRQAPGKGLEWVSRISPSGGYTWYADSVKGRFTISRDNSKNTLYLQMNSLRAEDTAVYYCTRGRYTSGWHEYFDPWGQGTLVTVSS
VL: DIQMTQSPSSLSASVGDRVTITCRASQSIGTYLNWYQQKPGTAPKVLIYAASSLQSGVPSRFSGSGSGTDFTLTISSLQPEDFSTYYCQQSYNTPRTFGQGTKLEIK
Regarding B2, the “IC50, inhibition of HMG1 stimulated NO release from macrophages” value in [1] was 41700 ng/mL. The “IC50, inhibition of rHMG1 stimulated IL-1β release from human PBMC” value in [1] is 80.9 ng/mL. In addition, the “IC50, inhibition of rHMG1 stimulated IL-6 release from human PBMC” value in assay [1] came to 0.162 nM. The “IC50, inhibition of native activated HMG1 stimulated IL-6 release from human PBMC” value in assay [8] stood at 11.5 nM. Moreover, the binding result is on record as “no binding (tested: 10 ug/mL (not on the sheet))” in [4], “no binding (tested: 10 ug/ml (log 1.00))” in [5], “no binding (tested: 10 ug/ml (log 1.00))” in [6] and “binds” in assay [7].

B3: anti-HMG1 antibody G2 (antibody, V domains shown)
VH: EVQLLESGGGLVQPGGSLRLSCAASGFTFSWYKMQWVRQAPGKGLEWVSGISPSGGSTAYADSVKGRFTISRDNSKNTLYLQMNSLRAEDTAVYYCAKMGLFNTGNSYVDYWGQGTLVTVSS
VL: AQSELTQPPSVSEAPGQRVTISCSGSTSNIGNNAVIWYQQLPGKAPKLLIYYDDLLPSGVSDRFSGSKSGTSGSLAISGLQSEDEADYYCASWDDNLNGPLFGGGTKLTVL
Consider B3, for which, in assay [1], the “IC50, inhibition of rHMG1 stimulated IL-1β release from human PBMC” value stood at 5030 ng/mL; the “IC50, inhibition of rHMG1 stimulated IL-6 release from human PBMC” value stood at 0.994 nM; the “IC50, inhibition of rHMG1 stimulated IL-12 release from human PBMC” value was determined as 1260 ng/mL; the “IC50, inhibition of rHMG1 stimulated TNF-α release from human PBMC” value is 1350 ng/mL. The IC50 in assay [9] amounted to 73.3 nM. In addition, the binding result in assay [4] was “no binding (tested: 10 ug/mL (not on the sheet))”. The binding result in assay [5] is “no binding (tested: 10 ug/ml (log 1.00))”. Also, the binding result in [6] was “no binding (tested: 10 ug/ml (log 1.00))”. Further, the binding result in [7] is recorded as “binds”.
